Results as given in PMC7736470.

Target: Neuropeptide Y (Homo sapiens), P01303
Conditions: remark: other sources report otherwise

B1: Neuropeptide Y receptor type 2, P49146 (protein)
chain: MGPIGAEADENQTVEEMKVEQYGPQTTPRGELVPDPEPELIDSTKLIEVQVVLILAYCSIILLGVIGNSLVIHVVIKFKSMRTVTNFFIANLAVADLLVNTLCLPFTLTYTLMGEWKMGPVLCHLVPYAQGLAVQVSTITLTVIALDRHRCIVYHLESKISKRISFLIIGLAWGISALLASPLAIFREYSLIEIIPDFEIVACTEKWPGEEKSIYGTVYSLSSLLILYVLPLGIISFSYTRIWSKLKNHVSPGAANDHYHQRRQKTTKMLVCVVVVFAVSWLPLHAFQLAVDIDSQVLDLKEYKLIFTVFHIIAMCSTFANPLLYGWMNSNYRKAFLSAFRCEQRLDAIHSEVSVTFKAKKNLEVRKNSGPNDSFTEATNV
With B1 the Kd was 35 nM.
